# Substitutions are numbered along the chain they refer to.
# B1: 81 (protein)
# chain: LDNGLARTPTMGWLHWERFMCNLDCQEEPDSCISEKLFMEMAELMVSEGWKDAGYEYLCIDDCWMAPQRDSEGRLQADPQRFPHGIRQLANYVHSKGLKLGIYADVGNKTCAGFPGSFGYYDIDAQTFADWGVDLLKFDGCYCDSLENLADGYKHMSLALNRTGRSIVYSCEWPLYMWPFQKPNYTEIRQYCNHWRNFADIDDSWKSIKSILDWTSFNQERIVDVAGPGGWNDPDMLVIGNFGLSWNQQVTQMALWAIMAAPLFMSNDLRHISPQAKALLQDKDVIAINQDPLGKQGYQLRQGDNFEVWERPLSGLAWAVAMINRQEIGGPRSYTIAVASLGKGVACNPACFITQLLPVKRRLGFYEWTSRLRSHINPTGTVLLQLENTMQMSKDLLL
# modifications: Synthetic Polypeptide sequence of Variant No. 81 of mature Human GLA
# B2: 89 (protein)
# chain: B1 chain with R362K, D395T
# modifications: Synthetic Polypeptide sequence of Variant No. 89 of mature Human GLA
# B3: 93 (protein)
# chain: B1 chain with K96R, R362K, L397V
# modifications: Synthetic Polypeptide sequence of Variant No. 93 of mature Human GLA
# B4: 94 (protein)
# chain: B1 chain with L100F, R362K
# modifications: Synthetic Polypeptide sequence of Variant No. 94 of mature Human GLA
# B5: 87 (protein)
# chain: B1 chain with R362K, D395R
# modifications: Synthetic Polypeptide sequence of Variant No. 87 of mature Human GLA
# B6: 90 (protein)
# chain: B1 chain with K96I, R362K
# modifications: Synthetic Polypeptide sequence of Variant No. 90 of mature Human GLA
# B7: 86 (protein)
# chain: B1 chain with R362K, D395P
# modifications: Synthetic Polypeptide sequence of Variant No. 86 of mature Human GLA
# B8: 88 (protein)
# chain: B1 chain with R362K, D395S
# modifications: Synthetic Polypeptide sequence of Variant No. 88 of mature Human GLA
# B9: 96 (protein)
# chain: B1 chain with L158I, R362K
# modifications: Synthetic Polypeptide sequence of Variant No. 96 of mature Human GLA
# B10: 92 (protein)
# chain: B1 chain with K96R, R362K
# modifications: Synthetic Polypeptide sequence of Variant No. 92 of mature Human GLA
# B11: 95 (protein)
# chain: B1 chain with L158A, R362K
# modifications: Synthetic Polypeptide sequence of Variant No. 95 of mature Human GLA
# B12: 97 (protein)
# chain: B1 chain with L158M, R362K
# modifications: Synthetic Polypeptide sequence of Variant No. 97 of mature Human GLA
# B13: 83 (protein)
# chain: B1 chain with K36E, R362K
# modifications: Synthetic Polypeptide sequence of Variant No. 83 of mature Human GLA
# B14: 91 (protein)
# chain: B1 chain with K96L, R362K
# modifications: Synthetic Polypeptide sequence of Variant No. 91 of mature Human GLA
# B15: 85 (protein)
# chain: B1 chain with R362K, D395G
# modifications: Synthetic Polypeptide sequence of Variant No. 85 of mature Human GLA
# B16: 82 (protein)
# chain: B1 chain with K36D, R362K
# modifications: Synthetic Polypeptide sequence of Variant No. 82 of mature Human GLA
# Legend:
# Type in all cases: biochemical
# [1] = HTP-analysis of yeast culture supernatants, no challenge (MUGal hydrolysis); conditions: activity of the variant/activity of WT GLA (SEQ ID NO: 5), yeast supernatant
# Outline: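 GLA variants expressed in yeast INVSc1, secreted into SD-Ura broth over 66-84 h at 30° C; clarified supernatants tested without challenge. Supernatant mixed with McIlvaine buffer pH 4.8 and 2 mM MUGal (citrate/KCl, pH 4.6), 37° C for 30-180 min, carbonate-quenched, fluorescence Ex 355/Em 448 nm.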
# [2] = HTP-analysis of supernatants pretreated with base (MUGal hydrolysis); conditions: challenge at pH 7.1; activity of the variant/activity of WT GLA (SEQ ID NO: 5); yeast supernatant
# Outline: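 Fluorescence of released 4-MU (Ex 355 nm, Em 448 nm) after carbonate quench reports MUGal hydrolysis by GLA variants secreted from INVSc1 yeast. Before the acidic (pH 4.3-4.8) 30-180 min reaction at 37° C, supernatants had been pre-incubated at pH 7.0-9.7 for 1-18 h at 37° C.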
# [3] = HTP-analysis of supernatants pretreated with acid (MUGal hydrolysis); conditions: challenge at pH 4.2; activity of the variant/activity of WT GLA (SEQ ID NO: 5); yeast supernatant
# Outline: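 Fluorescence of MUGal hydrolysis (Ex. 355 nm, Em. 448 nm) is read after sodium carbonate quench. The enzyme source is INVSc1 yeast culture supernatant, first exposed to pH 3.3-4.3 McIlvaine buffer at 37° C. for 1-3 h, then reacted at pH 4.8 for 30-180 minutes.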
molecule,measurement,setting,value
B1,Relative Activity of GLA Variants After No Challenge (NC),[1],+ (+ = 0.5 to 1.5 relative activity over WT GLA (SEQ ID NO: 5))
same,Relative Activity of GLA Variants After Challenge at pH 7.1,[2],+ (+ = 0.5 to 1.5 relative activity over WT GLA (SEQ ID NO: 5))
same,Relative Activity of GLA Variants After Challenge at pH 4.2,[3],+ (+ = 0.5 to 1.5 relative activity over WT GLA (SEQ ID NO: 5))
B2,Relative Activity of GLA Variants After No Challenge (NC),[1],++ (++ = >1.5 to 2.5 relative activity over WT GLA (SEQ ID NO: 5))
same,Relative Activity of GLA Variants After Challenge at pH 7.1,[2],+ (+ = 0.5 to 1.5 relative activity over WT GLA (SEQ ID NO: 5))
same,Relative Activity of GLA Variants After Challenge at pH 4.2,[3],+ (+ = 0.5 to 1.5 relative activity over WT GLA (SEQ ID NO: 5))
B3,Relative Activity of GLA Variants After No Challenge (NC),[1],++ (++ = >1.5 to 2.5 relative activity over WT GLA (SEQ ID NO: 5))
same,Relative Activity of GLA Variants After Challenge at pH 7.1,[2],+ (+ = 0.5 to 1.5 relative activity over WT GLA (SEQ ID NO: 5))
same,Relative Activity of GLA Variants After Challenge at pH 4.2,[3],+++ (+++ = >2.5 relative activity over WT GLA (SEQ ID NO: 5))
B4,Relative Activity of GLA Variants After No Challenge (NC),[1],+ (+ = 0.5 to 1.5 relative activity over WT GLA (SEQ ID NO: 5))
same,Relative Activity of GLA Variants After Challenge at pH 7.1,[2],+ (+ = 0.5 to 1.5 relative activity over WT GLA (SEQ ID NO: 5))
same,Relative Activity of GLA Variants After Challenge at pH 4.2,[3],+ (+ = 0.5 to 1.5 relative activity over WT GLA (SEQ ID NO: 5))
B5,Relative Activity of GLA Variants After No Challenge (NC),[1],+ (+ = 0.5 to 1.5 relative activity over WT GLA (SEQ ID NO: 5))
same,Relative Activity of GLA Variants After Challenge at pH 7.1,[2],+ (+ = 0.5 to 1.5 relative activity over WT GLA (SEQ ID NO: 5))
same,Relative Activity of GLA Variants After Challenge at pH 4.2,[3],++ (++ = >1.5 to 2.5 relative activity over WT GLA (SEQ ID NO: 5))
B6,Relative Activity of GLA Variants After No Challenge (NC),[1],+ (+ = 0.5 to 1.5 relative activity over WT GLA (SEQ ID NO: 5))
same,Relative Activity of GLA Variants After Challenge at pH 7.1,[2],+ (+ = 0.5 to 1.5 relative activity over WT GLA (SEQ ID NO: 5))
same,Relative Activity of GLA Variants After Challenge at pH 4.2,[3],+ (+ = 0.5 to 1.5 relative activity over WT GLA (SEQ ID NO: 5))
B7,Relative Activity of GLA Variants After No Challenge (NC),[1],++ (++ = >1.5 to 2.5 relative activity over WT GLA (SEQ ID NO: 5))
same,Relative Activity of GLA Variants After Challenge at pH 7.1,[2],++ (++ = >1.5 to 2.5 relative activity over WT GLA (SEQ ID NO: 5))
same,Relative Activity of GLA Variants After Challenge at pH 4.2,[3],++ (++ = >1.5 to 2.5 relative activity over WT GLA (SEQ ID NO: 5))
B8,Relative Activity of GLA Variants After No Challenge (NC),[1],+ (+ = 0.5 to 1.5 relative activity over WT GLA (SEQ ID NO: 5))
same,Relative Activity of GLA Variants After Challenge at pH 7.1,[2],+ (+ = 0.5 to 1.5 relative activity over WT GLA (SEQ ID NO: 5))
same,Relative Activity of GLA Variants After Challenge at pH 4.2,[3],++ (++ = >1.5 to 2.5 relative activity over WT GLA (SEQ ID NO: 5))
B9,Relative Activity of GLA Variants After No Challenge (NC),[1],+ (+ = 0.5 to 1.5 relative activity over WT GLA (SEQ ID NO: 5))
same,Relative Activity of GLA Variants After Challenge at pH 7.1,[2],+ (+ = 0.5 to 1.5 relative activity over WT GLA (SEQ ID NO: 5))
same,Relative Activity of GLA Variants After Challenge at pH 4.2,[3],+ (+ = 0.5 to 1.5 relative activity over WT GLA (SEQ ID NO: 5))
B10,Relative Activity of GLA Variants After No Challenge (NC),[1],+ (+ = 0.5 to 1.5 relative activity over WT GLA (SEQ ID NO: 5))
same,Relative Activity of GLA Variants After Challenge at pH 7.1,[2],+ (+ = 0.5 to 1.5 relative activity over WT GLA (SEQ ID NO: 5))
same,Relative Activity of GLA Variants After Challenge at pH 4.2,[3],+ (+ = 0.5 to 1.5 relative activity over WT GLA (SEQ ID NO: 5))
B11,Relative Activity of GLA Variants After No Challenge (NC),[1],+ (+ = 0.5 to 1.5 relative activity over WT GLA (SEQ ID NO: 5))
same,Relative Activity of GLA Variants After Challenge at pH 7.1,[2],+ (+ = 0.5 to 1.5 relative activity over WT GLA (SEQ ID NO: 5))
same,Relative Activity of GLA Variants After Challenge at pH 4.2,[3],+ (+ = 0.5 to 1.5 relative activity over WT GLA (SEQ ID NO: 5))
B12,Relative Activity of GLA Variants After No Challenge (NC),[1],+ (+ = 0.5 to 1.5 relative activity over WT GLA (SEQ ID NO: 5))
same,Relative Activity of GLA Variants After Challenge at pH 7.1,[2],+ (+ = 0.5 to 1.5 relative activity over WT GLA (SEQ ID NO: 5))
same,Relative Activity of GLA Variants After Challenge at pH 4.2,[3],+ (+ = 0.5 to 1.5 relative activity over WT GLA (SEQ ID NO: 5))
B13,Relative Activity of GLA Variants After No Challenge (NC),[1],+ (+ = 0.5 to 1.5 relative activity over WT GLA (SEQ ID NO: 5))
same,Relative Activity of GLA Variants After Challenge at pH 7.1,[2],+ (+ = 0.5 to 1.5 relative activity over WT GLA (SEQ ID NO: 5))
same,Relative Activity of GLA Variants After Challenge at pH 4.2,[3],++ (++ = >1.5 to 2.5 relative activity over WT GLA (SEQ ID NO: 5))
B14,Relative Activity of GLA Variants After No Challenge (NC),[1],+ (+ = 0.5 to 1.5 relative activity over WT GLA (SEQ ID NO: 5))
same,Relative Activity of GLA Variants After Challenge at pH 7.1,[2],++ (++ = >1.5 to 2.5 relative activity over WT GLA (SEQ ID NO: 5))
same,Relative Activity of GLA Variants After Challenge at pH 4.2,[3],+ (+ = 0.5 to 1.5 relative activity over WT GLA (SEQ ID NO: 5))
B15,Relative Activity of GLA Variants After No Challenge (NC),[1],+ (+ = 0.5 to 1.5 relative activity over WT GLA (SEQ ID NO: 5))
same,Relative Activity of GLA Variants After Challenge at pH 7.1,[2],+ (+ = 0.5 to 1.5 relative activity over WT GLA (SEQ ID NO: 5))
same,Relative Activity of GLA Variants After Challenge at pH 4.2,[3],+ (+ = 0.5 to 1.5 relative activity over WT GLA (SEQ ID NO: 5))
B16,Relative Activity of GLA Variants After No Challenge (NC),[1],+ (+ = 0.5 to 1.5 relative activity over WT GLA (SEQ ID NO: 5))
same,Relative Activity of GLA Variants After Challenge at pH 7.1,[2],+ (+ = 0.5 to 1.5 relative activity over WT GLA (SEQ ID NO: 5))
same,Relative Activity of GLA Variants After Challenge at pH 4.2,[3],+ (+ = 0.5 to 1.5 relative activity over WT GLA (SEQ ID NO: 5))

# Source: patent publication US11278600B2, “Human alpha-galactosidase variants” (Codexis, Inc., priority 2014, dated 2022)
